From PMC3691600, “Conversion of fatty aldehydes into alk (a/e)nes by in vitro reconstituted cyanobacterial aldehyde-deformylating oxygenase with the cognate electron transfer system” (Biotechnology for Biofuels, 2013)

Key:
[1] = substrate: CCCCCCC=O; test: GC headspace assay of n-hexane formation; type: biochemical, Synechococcus elongatus; conditions: chemical reductants PMS/NADH, ferrous ammonium sulfate, HEPES pH 7.2, 100 mM KCl, 10% glycerol, 4% DMSO, 37°C (conditions of the kcat assay)
[2] = substrate: NC(=O)C1=CN([C@@H]2O[C@H](COP(=O)(O)OP(=O)(O)OC[C@H]3O[C@@H](n4cnc5c(N)ncnc54)[C@H](OP(=O)(O)O)[C@@H]3O)[C@@H](O)[C@H]2O)C=CC1; test: purified protein; type: biochemical, Synechococcus elongatus; conditions: 0.7 mM potassium ferricyanide, 50 mM Tris-HCl pH 8.0, 25°C

Row | Protein | Km [1] | kcat [1] | Km [2] | kcat [2] | kcat/Km [2]
1 | ADO 1593 (Synechococcus elongatus PCC 7942 = FACHB-805) (protein, apo-ADO reconstituted with ferrous iron) MPQLEASLELDFQSESYKDAYSRINAIVIEGEQEAFDNYNRLAEMLPDQRDELHKLAKMEQRHMKGFMACGKNLSVTPDMGFAQKFFERLHENFKAAAAEGKVVTCLLIQSLIIECFAIAAYNIYIPVADAFARKITEGVVRDEYLHRNFGEEWLKANFDASKAELEEANRQNLPLVWLMLNEVADDARELGMERESLVEDFMIAYGEALENIGFTTREIMRMSAYGLAAV | 224 ± 40 µM | 0.002 ± 0.00033 s⁻¹ | – | – | –
2 | FNR (SynPcc7942_0978) (Synechococcus elongatus PCC 7942 = FACHB-805) (protein) MLNASVAGGAATTTYGNRLFIYEVIGLRQAEGEPSDSSIRRSGSTFFKVPYSRMNQEMQRILRLGGKIVSIRPAEEAAANNGAAPLQAAAEEPAAAPTPAPAAKKHSAEDVPVNIYRPNKPFVGKVLSNEPLVQEGGIGVVQHLTFDISEGDLRYIEGQSIGIIPDGTDDKGKPHKLRLYSIASTRHGDHVDDKTVSLCVRQLQYQNEAGETINGVCSTFLCGLKPGDDVKITGPVGKEMLLPADTDANVIMMGTGTGIAPFRAYLWRMFKDNERAINSEYQFNGKAWLIFGIPTTANILYKEELEALQAQYPDNFRLTYAISREQKNEAGGRMYIQDRVAEHADEIWNLLKDEKTHVYICGLRGMEDGIDQAMTVAAAKEDVVWSDYQRTLKKAGRWHVETY | – | – | 92.5 ± 7.6 µM | 227 ± 7 s⁻¹ | 2.5e+06 ± 300000 M⁻¹ s⁻¹
